In patent US20230134571A1 (INTERNATIONAL AIDS VACCINE INITIATIVE, published 2023):

Experiments:
Assay in all cases: cell-based or functional assay
[1] = biological target: HIV Env, isolate 3817.v2.c59 (HIV)
[2] = biological target: HIV Env, isolate WEAU_d15_410_5017 (HIV)
HIV Env, isolate 6535.3 = HIV Env, isolate 6535.3 (HIV)
[3] = biological target: HIV Env, isolate 62357_14_D3_4589 (HIV)
[4] = biological target: HIV Env, isolate Ce2010_F5 (HIV)
HIV Env, isolate CNE17 = HIV Env, isolate CNE17 (HIV)
[5] = biological target: HIV Env, isolate 1394C9G1(Rev-) (HIV)
[6] = biological target: HIV Env, isolate SC05_8C11_2344 (HIV)
HIV Env, isolate T278-50 = HIV Env, isolate T278-50 (HIV)
[7] = biological target: HIV Env, isolate X1193_C1 (HIV)
[8] = biological target: HIV Env, isolate QH0692.42 (HIV)
[9] = biological target: HIV Env, isolate HIV-16055-2.3 (HIV)
[10] = biological target: HIV Env, isolate CAP45.2.00.G3 (HIV)
[11] = biological target: HIV Env, isolate ZM249M.PL1 (HIV)
HIV Env, isolate Du422.1 = HIV Env, isolate Du422.1 (HIV)
[12] = biological target: HIV Env, isolate P0402_C2_11 (HIV)
[13] = biological target: HIV Env, isolate 1012_11_TC21_3257 (HIV)
[14] = biological target: HIV Env, isolate 6240_08_TA5_4622 (HIV)
HIV Env, isolate CNE58 = HIV Env, isolate CNE58 (HIV)
HIV Env, isolate 249MB10 = HIV Env, isolate 249MB10 (HIV)
[15] = biological target: HIV Env, isolate Du172.17 (HIV)

B1: PGDM1400 (antibody, V domains shown)
VH: QVHLTQSGPEVRKPGTSVKVSCKAPGNTLKTYDLHWVRSVPGQGLQWMGWISHEGDKKVIVERFKAKVTIDWDRSTNTAYLQLSGLTSGDTAVYYCAKGSKHRLRDYALYDDDGALNWAVDVDYLSNLEFWGQGTAVTVSS
VL: DFVLTQSPHSLSVTPGESASISCKSSHSLIHGDRNNYLAWYVQKPGRSPQLLIYLASSRASGVPDRFSGSGSDKDFTLKISRVETEDVGTYYCMQGRESPWTFGQGTKVDIK
IC80 (µg/ml) with constrains [1]: > 100 µg/mL
IC80 (µg/ml) with constrains [2]: 0.3 µg/mL
IC80 (µg/ml) with constrains (HIV Env, isolate 6535.3): > 100 µg/mL
IC80 (µg/ml) with constrains [3]: > 100 µg/mL
IC80 (µg/ml) with constrains [4]: > 100 µg/mL
IC80 (µg/ml) with constrains (HIV Env, isolate CNE17): 0.018 µg/mL
IC80 (µg/ml) with constrains [5]: 0.012 µg/mL
IC80 (µg/ml) with constrains [6]: 17.8 µg/mL
IC80 (µg/ml) with constrains (HIV Env, isolate T278-50): 21.7 µg/mL
IC80 (µg/ml) with constrains [7]: 0.374 µg/mL
IC80 (µg/ml) with constrains [8]: > 100 µg/mL
IC80 (µg/ml) with constrains [9]: 0.013 µg/mL
IC80 (µg/ml) with constrains [10]: 0.005 µg/mL
IC80 (µg/ml) with constrains [11]: 0.101 µg/mL
IC80 (µg/ml) with constrains (HIV Env, isolate Du422.1): > 100 µg/mL
IC80 (µg/ml) with constrains [12]: 0.027 µg/mL
IC80 (µg/ml) with constrains [13]: 0.303 µg/mL
IC80 (µg/ml) with constrains [14]: > 100 µg/mL
IC80 (µg/ml) with constrains (HIV Env, isolate CNE58): 0.01 µg/mL
IC80 (µg/ml) with constrains (HIV Env, isolate 249MB10): 0.085 µg/mL
IC80 (µg/ml) with constrains [15]: 21.7 µg/mL
